Measured values taken from IntAct's records for PubMed 17229891.

Target: 1433b_human YWHAB (UniProt P31946)
Sequence of UniProt P31946 (P31946 whole entry): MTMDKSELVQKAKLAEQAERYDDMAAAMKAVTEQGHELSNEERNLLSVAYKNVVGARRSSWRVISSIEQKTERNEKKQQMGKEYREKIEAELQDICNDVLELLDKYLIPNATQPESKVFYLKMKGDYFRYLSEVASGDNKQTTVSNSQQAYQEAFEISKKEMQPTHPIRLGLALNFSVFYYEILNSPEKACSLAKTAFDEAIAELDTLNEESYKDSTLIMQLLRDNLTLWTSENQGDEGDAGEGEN

Substance: Dual specificity tyrosine-phosphorylation-regulated kinase 1A (Homo sapiens) (from UniProt Q13627-2) S520A
- effect of a mutation on the interaction: decreasing interaction
